Two molecules from patent US11104735B2, “Inhibition of cytokine-induced SH2 protein in NK cells” (The Walter and Eliza Hall Institute of Medical Research, priority 2015, dated 2021) can be followed below.

Assay [1] addresses T1, JAK1 phosphopeptide (JAK1-Y1034) (Homo sapiens, UniProt P23458).
T1 construct: purchased Genscript
Description: ITC, CIS constructs binding to JAK1 phosphopeptide. The following applies: CIS constructs with elongins B and C. Here is the method:
300 μM phosphopeptides were titrated into a 30 μM solution of the GST-CIS-SH2-BC ternary complex. ITC titration curves are shown. The titration curves all fitted well to a single-site model.
Isothermal calorimetric titrations were performed with a Microcal ITC200 (GE Healthcare). Phosphopeptides were obtained from Genscript. An optimised GST-CIS protein construct was prepared in which the internal PEST region ([…]) was deleted. The resulting ternary GST-CIS-SH2-SB complexes were dialysed against buffer (20 mM Tris pH 8.0, 100 mM NaCl, 2 mM 2-mercaptoethanol). Experiments were performed at 298 K unless stated otherwise. Typically, 12×3.15 μl injections of 300 μM phosphopeptides were titrated into a 30 μM solution of the GST-CIS-SH2-SB ternary complex. The heat of dilution of GST-CIS-SH2-BC was subtracted from the raw data of the binding experiment. Data were analysed using the evaluation software, Microcal Origin version 5.0. The binding curve fitted a single-site binding mode and all KD values were determined from duplicate experiments.

Another assay addresses JAK1 (Homo sapiens, UniProt P23458). Description: In vitro kinase inhibition assay, JAK1 kinase domain (JH1) with STAT5b substrate peptide. It is filed as biochemical. The protocol: Protein kinase assays, including high throughput kinase assays are known in the art as described in, e.g., in Babon et al. (2013) and Von Ahsen et al. (2005). In one exemplary embodiment 130 μM STAT5b peptide (SEQ ID NO:18 […]) is incubated with 5 nM human JAK1 (see SEQ ID NO:11 for corresponding amino acid sequence) at 25° C. for 30-60 min in 20 mM Tris pH 8.0, 100 mM NaCl, 5 mM 2-mercaptoethanol, 0.2 mg ml^−1 bovine serum albumin, 2 mM MgCl2, 100 μM ATP and 1 μCi γ-[^32P]ATP. […] After incubation, the reaction is spotted onto P81 phosphocellulose paper and quenched in 5% H3PO4. The paper is then washed (4×200 ml, 15 min) with 5% H3PO4 and exposed to a phosphorimager plate. Quantitation is performed using phosphorimager software and IC50 curves are then calculated based on integrated pixel counts.
Kinase inhibition assays were performed essentially as described (Babon et al., 2012). Briefly, 130 μM STAT5b peptide (SEQ ID NO:18 […]) was incubated with 5 nM JAK1 at 25° C. for 30-60 min in 20 mM Tris pH 8.0, 100 mM NaCl, 5 mM 2-mercaptoethanol, 0.2 mg ml^−1 bovine serum albumin, 2 mM MgCl2, 100 μM ATP and 1 mCi γ-[32P]ATP. […] After incubation, the reaction was spotted onto P81 phosphocellulose paper and quenched in 5% H3PO4. The paper was washed (4×200 ml, 15 min) with 5% H3PO4 and exposed to a phosphorimager plate (Fuji). Quantitation was performed using Fuji software and IC50 curves calculated using Graphpad Prism.

JAK1, sequence (P23458 875-1153 limits assumed): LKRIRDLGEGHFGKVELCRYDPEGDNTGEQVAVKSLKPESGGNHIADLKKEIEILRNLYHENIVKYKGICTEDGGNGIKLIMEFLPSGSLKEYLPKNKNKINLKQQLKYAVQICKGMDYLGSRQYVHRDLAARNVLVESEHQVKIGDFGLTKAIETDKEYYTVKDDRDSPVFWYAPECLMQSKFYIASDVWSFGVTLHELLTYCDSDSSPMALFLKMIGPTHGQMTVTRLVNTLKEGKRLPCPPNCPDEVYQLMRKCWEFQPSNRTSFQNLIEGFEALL

B1: CIS-ΔN34: human CIS lacking the N-terminal 34 residues, in complex with elongins B and C (protein, UniProt Q9NSE2 35-258, looked up, fragment)
chain: QPLPAGAFLEEVAEGTPAQTESEPKVLDPEEDLLCIAKTFSYLRESGWYWGSITASEARQHLQKMPEGTFLVRDSTHPSYLFTLSVKTTRGPTNVRIEYADSSFRLDSNCLSRPRILAFPDVVSLVQHYVASCTADTRSDSPDPAPTPALPMPKEDAPSDPALPAPPPATAVHLKLVQPFVRRSSARSLQHLCRLVINRLVADVDCLPLPRRMADYLRQYPFQL
modifications: complex with elongins B and C
For B1, in assay [1], the “Binding affinity (ITC) to JAK1 phosphopeptide” value is reported as “greatest reduction in binding”.

B2: CIS-SH2-BC complex: recombinant trimeric complex of human GST-CIS construct (hCIS-SH2; residues 66-258) and Elongins B and C (protein)
chain: MVLCVQGSCPLLAVEQIGRRPLWAQSLELPGPAMQPLPTGAFPEEVTEETPVQAENEPKVLDPEGDLLCIAKTFSYLRESGWYWGSITASEARQHLQKMPEGTFLVRDSTHPSYLFTLSVKTTRGPTNVRIEYADSSFRLDSNCLSRPRILAFPDVVSLVQHYVASCAADTRSDSPDPAPTPALPMSKQDAPSDSVLPIPVATAVHLKLVQPFVRRSSARSLQHLCRLVINRLVADVDCLPLPRRMADYLRQYPFQL
modifications: left off: small tags and cut ends
notes: recombinant trimeric complex of human GST-CIS construct (hCIS-SH2; residues 66-258) and Elongins B and C
The IC50 is the midpoint of a concentration-inhibition curve. On to B2, for which the IC50 with JAK1 (JAK1 JH1, in vitro kinase reaction, read-out: IC50, inhibition of JAK1 phosphorylation of a substrate peptide) is 120 ± 20 nM. Besides, in the assay with JAK1 (JH1 domains of all four JAKs), the “Inhibition of JAK1 relative to inhibition of JAK2, JAK3 or TYK2” value was no less than 20 fold. Besides, the “Lower efficiency of JAK1 inhibition than SOCS1” value with JAK1 (compared with SOCS1) was found to be 100 fold.
